Measurements published in article PMC3359990.

Biological target: TbRIF5-BB2-HA (T. brucei)
Experiment: co-IP; cytoplasmic extracts of cells expressing TbDCL1-BB2-FLAG and TbRIF5-BB2-HA; immunoprecipitation with anti-FLAG or anti-HA antibody; Western blot for the common BB2 epitope

percent of TbDCL1 in the precipitate: 50%
Substance: TbDCL1-BB2-FLAG (enzyme)
